This assay deals with RyR1 with a His10 tag inserted at position 500 (His^500-RyR1) (rabbit) (UniProt P11716). Put plainly: FRET or BRET. In general terms: BRET reads energy transfer from a luciferase to a nearby fluorophore.
Chain of UniProt P11716 (P11716 whole entry): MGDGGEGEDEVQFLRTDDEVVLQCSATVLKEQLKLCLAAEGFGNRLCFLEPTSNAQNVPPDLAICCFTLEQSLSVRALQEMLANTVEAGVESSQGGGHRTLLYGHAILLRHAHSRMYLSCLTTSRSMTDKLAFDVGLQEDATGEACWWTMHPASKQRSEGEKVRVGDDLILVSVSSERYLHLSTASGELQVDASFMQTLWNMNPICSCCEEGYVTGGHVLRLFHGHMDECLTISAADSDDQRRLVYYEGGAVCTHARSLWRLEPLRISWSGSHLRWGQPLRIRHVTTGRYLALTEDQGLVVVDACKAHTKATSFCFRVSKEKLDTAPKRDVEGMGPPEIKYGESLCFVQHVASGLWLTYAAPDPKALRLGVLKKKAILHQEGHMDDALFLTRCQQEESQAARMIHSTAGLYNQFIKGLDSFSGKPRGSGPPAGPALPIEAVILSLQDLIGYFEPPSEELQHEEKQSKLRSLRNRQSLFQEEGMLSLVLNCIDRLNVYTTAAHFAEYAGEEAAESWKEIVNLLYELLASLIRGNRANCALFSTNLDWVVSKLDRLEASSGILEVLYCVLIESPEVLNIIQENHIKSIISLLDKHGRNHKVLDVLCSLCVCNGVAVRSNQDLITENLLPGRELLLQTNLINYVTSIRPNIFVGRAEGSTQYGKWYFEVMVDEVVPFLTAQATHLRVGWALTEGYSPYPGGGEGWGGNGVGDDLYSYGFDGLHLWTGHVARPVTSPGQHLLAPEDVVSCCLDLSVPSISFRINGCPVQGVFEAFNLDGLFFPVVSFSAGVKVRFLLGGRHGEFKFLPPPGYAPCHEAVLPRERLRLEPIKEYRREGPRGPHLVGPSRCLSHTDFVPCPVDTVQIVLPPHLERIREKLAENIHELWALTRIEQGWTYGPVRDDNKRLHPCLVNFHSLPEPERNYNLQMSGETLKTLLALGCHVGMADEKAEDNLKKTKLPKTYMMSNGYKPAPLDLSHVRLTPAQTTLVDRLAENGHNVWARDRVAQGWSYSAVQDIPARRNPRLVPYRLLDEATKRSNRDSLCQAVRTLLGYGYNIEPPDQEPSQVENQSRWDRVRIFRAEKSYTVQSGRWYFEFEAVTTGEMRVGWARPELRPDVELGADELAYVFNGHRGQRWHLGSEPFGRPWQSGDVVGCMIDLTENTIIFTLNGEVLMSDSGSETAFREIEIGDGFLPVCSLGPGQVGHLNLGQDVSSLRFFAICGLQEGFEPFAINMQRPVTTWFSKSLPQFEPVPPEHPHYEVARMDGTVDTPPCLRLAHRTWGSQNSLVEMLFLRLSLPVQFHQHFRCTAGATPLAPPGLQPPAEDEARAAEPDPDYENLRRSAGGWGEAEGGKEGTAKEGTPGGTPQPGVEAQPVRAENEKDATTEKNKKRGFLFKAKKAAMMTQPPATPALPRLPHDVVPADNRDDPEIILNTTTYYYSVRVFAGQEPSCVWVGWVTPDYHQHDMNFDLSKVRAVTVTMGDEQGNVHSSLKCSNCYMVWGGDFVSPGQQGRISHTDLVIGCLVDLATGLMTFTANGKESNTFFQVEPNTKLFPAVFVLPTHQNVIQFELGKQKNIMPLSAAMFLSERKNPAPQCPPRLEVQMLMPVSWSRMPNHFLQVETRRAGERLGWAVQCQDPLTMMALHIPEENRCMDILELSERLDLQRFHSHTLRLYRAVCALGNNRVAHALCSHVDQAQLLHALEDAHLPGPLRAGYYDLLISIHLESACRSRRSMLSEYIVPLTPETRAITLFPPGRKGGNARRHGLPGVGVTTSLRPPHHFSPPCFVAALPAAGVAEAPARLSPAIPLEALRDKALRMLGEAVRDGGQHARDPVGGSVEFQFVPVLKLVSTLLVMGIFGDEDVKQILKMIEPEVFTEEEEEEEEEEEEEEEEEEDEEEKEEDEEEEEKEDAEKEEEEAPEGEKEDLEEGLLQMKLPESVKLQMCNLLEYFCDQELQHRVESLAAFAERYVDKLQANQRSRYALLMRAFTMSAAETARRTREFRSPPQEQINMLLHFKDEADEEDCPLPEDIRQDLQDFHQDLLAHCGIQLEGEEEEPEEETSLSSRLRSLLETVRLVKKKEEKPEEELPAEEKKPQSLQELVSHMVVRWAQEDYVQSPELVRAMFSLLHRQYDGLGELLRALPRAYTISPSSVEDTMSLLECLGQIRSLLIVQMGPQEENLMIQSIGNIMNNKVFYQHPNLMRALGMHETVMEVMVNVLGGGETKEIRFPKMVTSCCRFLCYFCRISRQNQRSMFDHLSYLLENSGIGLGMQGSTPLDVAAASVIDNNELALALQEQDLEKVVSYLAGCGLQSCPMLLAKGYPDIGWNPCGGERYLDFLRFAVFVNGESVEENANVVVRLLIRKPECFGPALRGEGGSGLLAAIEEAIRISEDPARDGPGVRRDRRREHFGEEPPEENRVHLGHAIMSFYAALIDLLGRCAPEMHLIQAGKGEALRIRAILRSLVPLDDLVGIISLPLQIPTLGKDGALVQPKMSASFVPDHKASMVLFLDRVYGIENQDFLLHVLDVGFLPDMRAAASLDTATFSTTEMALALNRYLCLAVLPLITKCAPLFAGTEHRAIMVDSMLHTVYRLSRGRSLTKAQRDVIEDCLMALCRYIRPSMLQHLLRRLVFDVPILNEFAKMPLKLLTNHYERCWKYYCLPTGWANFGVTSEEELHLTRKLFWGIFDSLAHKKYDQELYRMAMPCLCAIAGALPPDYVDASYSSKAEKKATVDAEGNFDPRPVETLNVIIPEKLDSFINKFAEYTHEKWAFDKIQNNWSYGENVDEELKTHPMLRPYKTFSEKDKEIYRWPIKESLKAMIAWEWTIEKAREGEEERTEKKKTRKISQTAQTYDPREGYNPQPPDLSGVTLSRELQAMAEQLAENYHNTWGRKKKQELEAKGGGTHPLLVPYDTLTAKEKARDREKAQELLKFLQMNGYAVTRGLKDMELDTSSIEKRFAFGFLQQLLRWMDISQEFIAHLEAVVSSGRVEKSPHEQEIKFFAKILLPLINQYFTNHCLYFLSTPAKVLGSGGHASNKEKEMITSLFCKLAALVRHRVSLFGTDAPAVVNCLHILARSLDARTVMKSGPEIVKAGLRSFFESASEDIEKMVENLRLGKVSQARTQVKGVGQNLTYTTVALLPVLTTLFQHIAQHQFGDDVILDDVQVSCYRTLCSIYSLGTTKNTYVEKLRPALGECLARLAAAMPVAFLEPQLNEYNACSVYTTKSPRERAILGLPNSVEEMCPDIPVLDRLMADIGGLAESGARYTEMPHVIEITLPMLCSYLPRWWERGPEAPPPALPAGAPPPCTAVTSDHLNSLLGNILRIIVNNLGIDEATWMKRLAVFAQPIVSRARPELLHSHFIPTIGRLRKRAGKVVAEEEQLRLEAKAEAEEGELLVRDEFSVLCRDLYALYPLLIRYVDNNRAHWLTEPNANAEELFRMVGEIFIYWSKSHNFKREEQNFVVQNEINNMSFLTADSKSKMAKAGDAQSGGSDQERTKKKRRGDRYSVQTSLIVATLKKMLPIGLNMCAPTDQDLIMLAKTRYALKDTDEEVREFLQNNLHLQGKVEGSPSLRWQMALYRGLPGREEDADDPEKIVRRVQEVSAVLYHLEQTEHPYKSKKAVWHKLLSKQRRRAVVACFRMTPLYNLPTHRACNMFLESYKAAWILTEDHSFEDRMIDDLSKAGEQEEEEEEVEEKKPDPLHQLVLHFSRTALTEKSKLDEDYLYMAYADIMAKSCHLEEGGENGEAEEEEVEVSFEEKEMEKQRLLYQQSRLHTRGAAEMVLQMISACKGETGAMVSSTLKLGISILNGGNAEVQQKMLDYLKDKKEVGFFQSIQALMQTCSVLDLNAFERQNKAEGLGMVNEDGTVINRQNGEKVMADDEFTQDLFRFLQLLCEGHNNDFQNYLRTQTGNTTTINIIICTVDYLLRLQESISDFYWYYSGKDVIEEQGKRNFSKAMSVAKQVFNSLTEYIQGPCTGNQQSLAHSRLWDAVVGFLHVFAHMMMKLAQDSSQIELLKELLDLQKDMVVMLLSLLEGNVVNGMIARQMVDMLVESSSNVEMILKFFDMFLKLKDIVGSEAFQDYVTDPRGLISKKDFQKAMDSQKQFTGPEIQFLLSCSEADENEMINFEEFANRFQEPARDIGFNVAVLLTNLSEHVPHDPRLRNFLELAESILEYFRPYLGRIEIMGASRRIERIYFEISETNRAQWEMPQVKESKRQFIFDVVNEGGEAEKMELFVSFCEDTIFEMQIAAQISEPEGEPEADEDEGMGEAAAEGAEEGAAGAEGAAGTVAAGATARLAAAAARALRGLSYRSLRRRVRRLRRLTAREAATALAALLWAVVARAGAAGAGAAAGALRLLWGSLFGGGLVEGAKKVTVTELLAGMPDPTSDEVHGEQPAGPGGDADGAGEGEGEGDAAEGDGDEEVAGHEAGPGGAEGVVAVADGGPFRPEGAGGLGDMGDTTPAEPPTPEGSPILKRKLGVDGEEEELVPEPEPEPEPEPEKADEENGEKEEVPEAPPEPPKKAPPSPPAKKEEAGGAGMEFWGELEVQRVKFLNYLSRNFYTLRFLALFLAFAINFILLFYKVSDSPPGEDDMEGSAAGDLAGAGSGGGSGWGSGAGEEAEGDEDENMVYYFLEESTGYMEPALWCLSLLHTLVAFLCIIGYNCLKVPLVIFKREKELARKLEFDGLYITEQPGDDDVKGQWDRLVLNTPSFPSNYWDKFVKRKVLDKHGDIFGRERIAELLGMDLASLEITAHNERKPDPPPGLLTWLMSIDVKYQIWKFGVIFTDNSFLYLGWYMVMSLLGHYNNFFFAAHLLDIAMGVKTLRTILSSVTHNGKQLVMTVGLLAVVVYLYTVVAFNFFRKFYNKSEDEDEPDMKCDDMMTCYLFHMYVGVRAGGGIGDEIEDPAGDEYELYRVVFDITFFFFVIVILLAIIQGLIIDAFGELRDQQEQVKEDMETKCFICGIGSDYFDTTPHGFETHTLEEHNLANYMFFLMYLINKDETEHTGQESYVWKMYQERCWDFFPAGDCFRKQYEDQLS

Turning to “FKBP12.6 with AF488 conjugated to amino acid residue 14 (D14-FKBP) (from UniProt P68106 1-108) (natural protein)”, the FRET efficiency (AF488 on FKBP to Cy3NTA on the His10 tag) amounted to 0.18.

The record behind these values is publication PMC4156536.
